Legend:
[1] = target: T1, heat-denatured misfolded chicken ovalbumin, P01012
T1 chain: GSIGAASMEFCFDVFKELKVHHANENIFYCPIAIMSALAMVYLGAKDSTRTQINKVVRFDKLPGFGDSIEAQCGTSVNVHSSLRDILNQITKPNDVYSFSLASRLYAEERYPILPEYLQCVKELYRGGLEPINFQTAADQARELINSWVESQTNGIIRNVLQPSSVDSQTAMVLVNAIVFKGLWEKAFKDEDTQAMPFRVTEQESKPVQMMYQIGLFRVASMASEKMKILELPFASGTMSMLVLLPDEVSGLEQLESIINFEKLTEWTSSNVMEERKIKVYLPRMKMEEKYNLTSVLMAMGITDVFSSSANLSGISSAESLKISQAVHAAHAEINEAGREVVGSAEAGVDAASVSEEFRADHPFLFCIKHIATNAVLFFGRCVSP

[2] = target: T2, recombinant human β2-glycoprotein I, P02749
T2 chain: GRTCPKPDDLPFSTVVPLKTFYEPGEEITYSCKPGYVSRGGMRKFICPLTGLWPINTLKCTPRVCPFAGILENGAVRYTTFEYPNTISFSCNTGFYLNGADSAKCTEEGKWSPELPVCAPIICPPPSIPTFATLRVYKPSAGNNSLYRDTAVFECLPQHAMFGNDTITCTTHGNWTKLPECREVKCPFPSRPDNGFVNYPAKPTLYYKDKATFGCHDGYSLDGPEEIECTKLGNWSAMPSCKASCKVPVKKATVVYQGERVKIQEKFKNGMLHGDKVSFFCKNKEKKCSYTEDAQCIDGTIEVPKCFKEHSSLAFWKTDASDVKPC

[3] = target: T3, β2-glycoprotein I purified from fresh human plasma, P02749
T3 chain: T2 chain

B1: tissue-type plasminogen activator (tPA, Actilyse, Boehringer-Ingelheim) (protein)
chain: SYQVICRDEKTQMIYQQHQSWLRPVLRSNRVEYCWCNSGRAQCHSVPVKSCSEPRCFNGGTCQQALYFSDFVCQCPEGFAGKCCEIDTRATCYEDQGISYRGTWSTAESGAECTNWNSSALAQKPYSGRRPDAIRLGLGNHNYCRNPDRDSKPWCYVFKAGKYSSEFCSTPACSEGNSDCYFGNGSAYRGTHSLTESGASCLPWNSMILIGKVYTAQNPSAQALGLGKHNYCRNPDGDAKPWCHVLKNRRLTWEYCDVPSCSTCGLRQYSQPQFRIKGGLFADIASHPWQAAIFAKHRRSPGERFLCGGILISSCWILSAAHCFQERFPPHHLTVILGRTYRVVPGEEEQKFEVEKYIVHKEFDDDTYDNDIALLQLKSDSSRCAQESSVVRTVCLPPADLQLPDWTECELSGYGKHEALSPFYSERLKEAHVRLYPSSRCTSQHLLNRTVTDNMLCAGDTRSGGPQANLHDACQGDSGGPLVCLNDGRMTLVGIISWGLGCGQKDVPGVYTKVTNYLDWIRDNMRP
- tPA protease activity, chromogenic tPA substrate S-2765 [1]: At 80-fold dilution, misfolded OVA stimulated tPA protease activity when compared to PBS/DMSO buffer control
- Plg-activation assay: tPA-mediated conversion of Plg to plasmin, chromogenic substrate S-2251 [2]: Recombinant β2GPI, but not β2GPI purified from fresh plasma stimulate tPA-mediated conversion of Plg to plasmin
- Plg-activation assay: tPA-mediated conversion of Plg to plasmin, chromogenic substrate S-2251 [3]: Recombinant β2GPI, but not β2GPI purified from fresh plasma stimulate tPA-mediated conversion of Plg to plasmin
